Assay [1] addresses T1, human complement C4b (human, UniProt P0C0L4, biotin (EZ link Maleimide-PEG2-Biotin) coupled to its thiol group, only where C4b was held on the SPR chip).
T1 construct: beta chain (75 kDa) of human complement C4; alpha' chain (87 kDa) of human C4b, the alpha chain of C4 after removal of C4a; gamma chain (33 kDa) of human complement C4; One molecule for unlabelled C4b (SEC, cryo-EM, analyte in SPR), C4b biotinylated at the thiol (ligand in SPR) and C4b deposited on erythrocytes from serum; The CTC domain is not in the deposited models; source: bought: Complement …
The assay is described as follows: SPR; biotinylated nanobodies (100 nM) spotted on a streptavidin chip; kinetic titration with C4b as analyte, five-step twofold dilution without regeneration, last dissociation 1 h; 20 mM HEPES pH 7.4, 150 mM NaCl, 3 mM MgCl2; NbE11 and NbH11 fitted with mass transport; duplicate. The settings on record: both partners purified. Background: SPR reads the build-up and loss of mass on a sensor chip optically.

Assay [2] addresses T1, human complement C4b. As to the kind of experiment: SPR; biotinylated C4b (50 nM) spotted on a planar streptavidin chip through its thiol group; nanobodies injected in a 14-step twofold dilution series; IBIS-MX96; 20 mM HEPES pH 7.4, 150 mM NaCl, 3 mM MgCl2; simple bimolecular model, NbE3 with mass transport; duplicate. The settings on record: both partners purified.

T1 sequence (P0C0L4 20-675, chain 1 of 3): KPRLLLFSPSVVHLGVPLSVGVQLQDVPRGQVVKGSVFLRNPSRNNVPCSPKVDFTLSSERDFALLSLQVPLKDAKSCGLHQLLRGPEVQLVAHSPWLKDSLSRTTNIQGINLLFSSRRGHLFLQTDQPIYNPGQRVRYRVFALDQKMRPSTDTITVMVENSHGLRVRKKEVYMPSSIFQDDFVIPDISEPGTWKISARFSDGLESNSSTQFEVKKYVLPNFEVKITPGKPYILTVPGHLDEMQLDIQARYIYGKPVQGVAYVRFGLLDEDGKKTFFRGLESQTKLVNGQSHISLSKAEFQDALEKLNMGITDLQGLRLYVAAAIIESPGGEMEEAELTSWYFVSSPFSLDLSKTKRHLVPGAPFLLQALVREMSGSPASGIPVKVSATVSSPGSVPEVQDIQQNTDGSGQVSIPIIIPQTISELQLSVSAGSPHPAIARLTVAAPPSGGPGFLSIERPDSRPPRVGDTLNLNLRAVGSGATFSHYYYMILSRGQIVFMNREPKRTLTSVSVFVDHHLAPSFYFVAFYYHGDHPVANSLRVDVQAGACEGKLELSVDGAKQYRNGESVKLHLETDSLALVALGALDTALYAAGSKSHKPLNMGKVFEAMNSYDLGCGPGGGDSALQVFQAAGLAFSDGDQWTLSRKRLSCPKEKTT
T1 sequence (P0C0L4 757-1446, chain 2 of 3): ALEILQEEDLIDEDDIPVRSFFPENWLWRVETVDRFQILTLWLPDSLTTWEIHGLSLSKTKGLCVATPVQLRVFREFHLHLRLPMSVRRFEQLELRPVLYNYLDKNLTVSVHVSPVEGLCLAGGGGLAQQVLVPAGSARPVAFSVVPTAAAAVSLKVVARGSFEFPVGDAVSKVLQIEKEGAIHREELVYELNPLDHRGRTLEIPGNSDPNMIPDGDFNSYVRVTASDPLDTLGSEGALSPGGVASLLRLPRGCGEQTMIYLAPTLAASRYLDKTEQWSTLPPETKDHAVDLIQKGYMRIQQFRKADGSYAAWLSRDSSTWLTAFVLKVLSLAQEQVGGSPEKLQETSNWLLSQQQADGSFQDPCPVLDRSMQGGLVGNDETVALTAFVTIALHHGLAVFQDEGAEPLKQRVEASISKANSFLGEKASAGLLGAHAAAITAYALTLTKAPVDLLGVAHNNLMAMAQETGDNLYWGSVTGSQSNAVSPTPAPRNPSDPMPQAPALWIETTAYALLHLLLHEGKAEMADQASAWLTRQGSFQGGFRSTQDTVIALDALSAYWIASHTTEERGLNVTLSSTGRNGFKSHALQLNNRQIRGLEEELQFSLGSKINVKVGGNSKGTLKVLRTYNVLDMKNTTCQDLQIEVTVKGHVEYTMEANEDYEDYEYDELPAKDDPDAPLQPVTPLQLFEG
T1 sequence (P0C0L4 1454-1744, chain 3 of 3): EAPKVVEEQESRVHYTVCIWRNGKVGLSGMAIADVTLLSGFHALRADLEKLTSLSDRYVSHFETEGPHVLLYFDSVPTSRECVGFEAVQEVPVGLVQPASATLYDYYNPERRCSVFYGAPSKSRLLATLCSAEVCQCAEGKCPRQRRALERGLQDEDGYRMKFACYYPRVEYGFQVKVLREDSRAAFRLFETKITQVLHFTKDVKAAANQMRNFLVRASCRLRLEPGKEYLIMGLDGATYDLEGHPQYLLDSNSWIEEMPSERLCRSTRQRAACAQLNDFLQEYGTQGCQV

B1: NbB5 (VHH)
VHH: EVQLVESGGGLVQPGGSLRLSCAASGFTFSSYHMSWVRQAPGKGLEWISVINDSGDLTRYADSVKGRFTISRDNAKNTLYLQMNSLQPEDTAVYSCLKSSDFYSYSNADSRGQGTQVTVSS
notes: Vector: modified pHEN6 with thrombin cleavage site and 6xHis, N-terminal pelB leader for periplasmic secretion; no cleavage of the tag is told; source: E. coli BL21 Codon Plus (DE3)-RIL, periplasm, purified (Ni-NTA, SEC)
A word on the Kd: it is the concentration at which binding is half-saturated. A higher Kd goes with weaker binding. A word on the koff: it is a measure of how fast the partners let go of each other. With B1, in assay [1], the Kd amounted to 67 ± 6 pM and the koff turned out to be 1.3e-05 s⁻¹.

B2: NbE3 (VHH)
VHH: EVQLVESGGGLVQAGGSLRLSCAASGSDFSANAVGWYRQAPGKQRVVVASISSTGNTKYSNSVKGRFTISRDNAKNTVYLQMNSLKPEDTAVYYCWLFRFGIENYWGQGTQVTVSS
notes: Vector: modified pHEN6 with thrombin cleavage site and 6xHis, N-terminal pelB leader; no cleavage of the tag is told; also called NbBE3; source: E. coli BL21 Codon Plus (DE3)-RIL, periplasm, purified (Ni-NTA, SEC)
In assay [2], B2 had a Kd of 318 ± 10 pM and a koff of 0.0066 s⁻¹.

B3: NbB12 (VHH)
VHH: EVQLVESGGGLVQAGGSLRLSCVASERTYMAWFRQAPGKEREFVAAITSSGMMTEYAPSVKGRFTISRDNAKNTVYLQMNSLKPEDTAVYYCAADLRQRFGERVTEYDYWGQGTQVTVSS
notes: Vector: modified pHEN6 with thrombin cleavage site and 6xHis, N-terminal pelB leader; no cleavage of the tag is told; also called NbB12-AF488; source: E. coli BL21 Codon Plus (DE3)-RIL, periplasm, purified (Ni-NTA, SEC)
In assay [1], B3 registered a Kd of 14 ± 4 pM and a dissociation rate constant (koff) of 3.8e-06 s⁻¹.

Values taken from publication PMC9047069, “Multifaceted Activities of Seven Nanobodies against Complement C4b” (The Journal of Immunology Author Choice, 2022).
